The subject of test [1] is BxPC-3 pancreatic cancer cell line. Nature of the test: Cell viability by CellTiter-Glo after doxycycline-induced expression. In kind it is cell-based. The following applies: BxPC-3, expression induced by doxycycline for 4 days. The source says: (§1) FIG. 5. Micropeptide of sequence SEQ ID NO: 1 overexpression induces cell cycle arrest and cellular senescence. BxPC-3 cells were transduced with an inducible lentivirus coding HA-SEQ ID NO: 1. Micropeptide of sequence SEQ ID NO: 1 expression was induced by doxycycline treatment for 4 days. (A) Phase contrast images of SEQ ID NO:1-expressing cells and control cells. (B) Cell viability analysis by CellTiter-Glo assay. (C) Cell cycle analysis by flow cytometry. Left, histogram plots. Right, quantification of the number of cells in every cell cycle phase (D) Analysis of p27 and p21 expression by qPCR. (E) Western Blot of the indicated cells using anti-HA and anti-p21 antibodies. (F) Quantification of the number of SA-β-Gal positive cells in doxycycline-treated and untreated cells. (G) Representative pictures of the cell quantified in (F). Graphs show the mean±SEM, using at least 3 technical replicates. **P<0.01 ***P<0,001 **** P<0.0001, two-tailed t-test.
(§2) Micropeptide of SEQ ID NO: 1 expression was induced in BxPC3 cells by treatment with doxycycline (2 μg/ml) for 4 days. Cells were fixed using 100% ethanol at 4° C., stained with Propidium Iodide, and cell cycle was analysed by flow cytometry (LSR-Fortessa cytometer). Cell viability in micropeptide of SEQ ID NO: 1-expressing cells was evaluated using CellTiter-Glo 2.0 (Promega) following manufacturer's instructions.

The test system is the same in test [2]. Put plainly: Cell cycle analysis by flow cytometry. It counts as cell-based. The note with it: BxPC-3, expression induced by doxycycline for 4 days.
Text: as §1, §2
For orientation: A flow cytometer gives signals particle by particle.

Test [3] deals with CDK inhibitors p27 and p21. Nature of the test: p27 and p21 expression by qPCR and Western Blot in BxPC-3. In kind it is cell-based. The following applies: BxPC-3, doxycycline-induced expression.
Text: as §1
Total RNA was extracted with Trizol® and treated with TURBO™ DNase following provider's recommendations. 1 μg of RNA was retrotranscribed using iScript™ cDNA Synthesis Kit (BioRad). Gene expression was analysed by quantitative real time PCR using PowerUp SYBR Green Master Mix (Thermo Fisher Scientific) in the 7900HT Fast Real-Time PCR System (Applied Biosystems). Cycle threshold (Ct) values were normalized to GAPDH. […]
(In general: Quantitative PCR measures a nucleic acid by following its amplification.)

The next test has as its system BxPC-3 cells. Put plainly: SA-β-gal staining assay. It counts as cell-based. The following applies: BxPC-3, doxycycline-treated vs untreated.
Text: as §1
For SA-β-gal staining, cells were fixed and stained using a commercial senescence β-galactosidase staining kit (Cell Signalling) following manufacture's protocol.

Test [4] concerns SkBR-3, HPAF II, MIA PaCa-2 and BxPC-3 cells. Nature of the test: Cell death upon puromycin selection stress (phase contrast images). In kind it is cell-based. The note with it: Puromycin selection of infected cells, pMSCV non-inducible vector; several pancreatic and breast cancer cell lines. How it is done:
FIG. 6. Micropeptide of sequence SEQ ID NO: 1 expression induces cell death upon cellularstress. SkBR-3, HPAF II, MIA PaCa-2 and BxPC-3 cells were infected with empty or SEQ ID NO: 1-HA retroviruses, and selected by puromycin. Micropeptide of sequence SEQ ID NO: 1 expression was analyzed by qPCR (A) and by Western blot (B). (C) Phase contrast images of the indicated cells 3 days after selection with puromycin. […] (E) BXPC-3 cells were infected with an inducible lentivirus encoding SEQ ID NO: 1-HA, and selected with Neomycin. Micropeptide of sequence SEQ ID NO: 1 expression was induced by doxycycline, and cells were treated with Doxorubicin or Actinomycin D. (E) Cell viability of the indicated cells measured by crystal violet staining.

Test [5] deals with Lung cancer cell line A549. Put plainly: Cell proliferation assay (growth curve, 14 days). It counts as cell-based, human. The note with it: A549, monitored for 14 days, vs control vector. From the text: (§3) FIG. 8. SEQ ID NO: 1 overexpression reduces cell proliferation. A549 and H10 cells were transduced with an inducible lentivirus coding HA-SEQ ID NO: 1. SEQ ID NO: 1 expression was induced by doxycycline treatment for 14 days. (A) Growth curve of transduced cells over 14 days of SEQ ID NO:1 expression. (B) Cell cycle analysis by flow cytometry. Left, histogram plots. Right, quantification of the number of cells in every cell cycle phase. Graphs show the mean±SD, using at least 3 technical replicates. **** P<0.0001, two-tailed t-test.
A549 and H10 cell lines were dissociated by trypsin digestion and seeded into 24-well cell culture plates at density 5×10^3 cells/well. Every two days, cells were dissociated from wells and counted using a Neubauer chamber. Cell growth curves were monitored for 14 days.

The test system of the next test is A549 cells. Put plainly: Cell cycle analysis by flow cytometry. It counts as cell-based, human.
Text: as §3, §2

In another test the test system is H10 cancer cells. Put plainly: Invasion assay (Boyden chamber, Matrigel). It counts as cell-based. The following applies: H10, after 4 days of doxycycline induction, 24 h invasion. Here is the method: FIG. 9. SEQ ID NO: 1 overexpression impairs invasiveness and reduces mesenchymal traits in A549 and H10 cell lines. Invasion of indicated cells was analyzed in matrigel-coated inserts. (A) The undersides of membrane inserts containing invaded cells were fixed and stained with crystal violet and photographed 24 h after plating. (B) Number of invasive cells was calculated using ImageJ software. Bars plots show relative number of cells invading the chamber. (C) Analysis of several mesenchymal genes by qPCR. mRNA expression is shown relative to the control. * P<0.05, **P<0.01 two-tailed t-test.
BxPC-3, MDA-MB-231, A549 and H10 cell lines were trypsinized, counted, and 20.000 cells/well were seeded in triplicate in a Corning® cell culture insert (Boyden chamber) in which the porous membrane is coated with a layer of Matrigel® to mimic an extra cellular matrix (ECM). Cells were allowed to invade through the coated membrane for 24 hours in the cell incubator at 37° C. After the incubation time, culture inserts were fixed in methanol 5 minutes at RT and stained using Crystal Violet 20 minutes at RT. The excess of Crystal Violet staining was removed washing with PBS and pictures of the chambers were taken using an Olympus CeIIR microscope. Invading cells were counted using ImageJ and fold change was calculated normalizing to the control.

B1: SEQ ID NO: 1: highly conserved 87 aa micropeptide coded by the lncRNA TINCR; predicted ubiquitin-like protein (protein, listed as Homo sapiens)
chain: MEGLRRGLSRWKRYHIKVHLADEALLLPLTVRPRDTLSDLRAQLVGQGVSSWKRAFYYNARRLDDHQTVRDARLQDGSVLLLVSDPR
As to B1, the cell proliferation result in test [1] is recorded as “significantly reduces cell proliferation”. Moreover, the cell cycle entry in test [2] is “induces cell cycle arrest in G1 phase”. Further, in test [3], the “expression of the CDK inhibitors p27 and p21” value is listed as “upregulation”. Further, the “number of senescent cells (SA-β-Gal-positive cells)” value in the test on BxPC-3 cells is given as “increase”. The “cell death when coupled with cellular stress” value in test [4] is “extensive cell death”. In addition, the growth rate result in test [5] was “consistently lower growth rate”. Besides, the “cells arrested in G1 phase” value in the test with A549 cells is reported as “increase in cells arrested in G1 phase”. Besides, in the test on H10 cancer cells, the invasion result is given as “significant decrease in invasion”.

For the origin of these results see patent US11858972B2, “Micropeptides and uses thereof” (FUNDACIÓ PRIVADA INSTITUT D'INVESTIGACIÓ ONCOLÒGICA DE VALL …, priority 2018, dated 2024).
